Results reported in patent US5741673, “Nucleic acid encoding a novel homeobox factor which stimulates insulin expression in pancreatic islet cells” (Research Development Foundation).

B1: somatostatin TSE I (dsDNA)
DNA 1: TTGCGAGGCTAATGGTGCG
DNA 2: CGCACCATTAGCCTCGCAA
B2: rat insulin I FLAT (E2) (dsDNA)
DNA 1: TTAATAATCTAATTACCC
DNA 2: GGGTAATTAGATTATTAA
B3: rat insulin I P-Box (dsDNA)
DNA 1: CTTAATGGGCCAAACGGCA
DNA 2: TGCCGTTTGGCCCATTAAG
B4: somatostatin TSE II (dsDNA)
DNA 1: GATCTCAGTAATAATCATGCAG
DNA 2: CTGCATGATTATTACTGAGATC

What was measured:
[1] = biological target: T1, ITF-1 full length (CMV expression) (rat, UniProt P52947 SEQ:1-283); experiment: cell_activity; TSE I somatostatin reporter in HeLa cells
[2] = biological target: ITF-1 fragment aa 124-283 (thrombin-cleaved from GST fusion) (rat, UniProt P52947 SEQ:124-283); experiment: footprint; DNase I; also bound in EMSA; conditions: tags: GST removed by thrombin
[3] = biological target: T1, ITF-1 full length (CMV expression); experiment: cell_activity; TSE II somatostatin reporter in HeLa cells

T1 sequence (P52947 whole entry, the tested form may be a part): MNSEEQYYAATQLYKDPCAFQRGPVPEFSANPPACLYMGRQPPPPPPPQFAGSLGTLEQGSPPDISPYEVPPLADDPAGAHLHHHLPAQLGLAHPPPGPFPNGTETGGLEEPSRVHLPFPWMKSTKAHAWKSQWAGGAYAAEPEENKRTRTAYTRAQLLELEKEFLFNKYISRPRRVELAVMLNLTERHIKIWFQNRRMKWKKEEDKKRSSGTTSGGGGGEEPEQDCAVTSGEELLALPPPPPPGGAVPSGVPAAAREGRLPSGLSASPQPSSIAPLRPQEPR
Chain of ITF-1 fragment aa 124-283 (thrombin-cleaved from GST fusion) (P52947 124-283): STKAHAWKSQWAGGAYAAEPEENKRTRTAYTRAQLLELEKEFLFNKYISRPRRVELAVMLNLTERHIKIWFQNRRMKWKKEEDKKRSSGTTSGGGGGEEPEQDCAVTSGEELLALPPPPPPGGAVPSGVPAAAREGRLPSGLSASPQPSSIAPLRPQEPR

Row | Binder | binding result [2] | other results
1 | B1 | – | activity [1]: ~12 fold
2 | B2 | binds | –
3 | B3 | binds | –
4 | B4 | – | activity [3]: ~12 fold
